Assay results taken from USRE48267E1, “Variants of C-type natriuretic peptide” (priority 2009, dated 2020).
Where no end group is shown, it is not given here. [ ]: non-standard residue; d: D form. NMeL = CN[C@@H](CC(C)C)C(=O)O

Molecular target: T1, NPR-B (natriuretic peptide receptor B), murine, expressed endogenously on NIH3T3 cells (murine, UniProt Q6VVW5 17-1047)
T1 sequence (looked up): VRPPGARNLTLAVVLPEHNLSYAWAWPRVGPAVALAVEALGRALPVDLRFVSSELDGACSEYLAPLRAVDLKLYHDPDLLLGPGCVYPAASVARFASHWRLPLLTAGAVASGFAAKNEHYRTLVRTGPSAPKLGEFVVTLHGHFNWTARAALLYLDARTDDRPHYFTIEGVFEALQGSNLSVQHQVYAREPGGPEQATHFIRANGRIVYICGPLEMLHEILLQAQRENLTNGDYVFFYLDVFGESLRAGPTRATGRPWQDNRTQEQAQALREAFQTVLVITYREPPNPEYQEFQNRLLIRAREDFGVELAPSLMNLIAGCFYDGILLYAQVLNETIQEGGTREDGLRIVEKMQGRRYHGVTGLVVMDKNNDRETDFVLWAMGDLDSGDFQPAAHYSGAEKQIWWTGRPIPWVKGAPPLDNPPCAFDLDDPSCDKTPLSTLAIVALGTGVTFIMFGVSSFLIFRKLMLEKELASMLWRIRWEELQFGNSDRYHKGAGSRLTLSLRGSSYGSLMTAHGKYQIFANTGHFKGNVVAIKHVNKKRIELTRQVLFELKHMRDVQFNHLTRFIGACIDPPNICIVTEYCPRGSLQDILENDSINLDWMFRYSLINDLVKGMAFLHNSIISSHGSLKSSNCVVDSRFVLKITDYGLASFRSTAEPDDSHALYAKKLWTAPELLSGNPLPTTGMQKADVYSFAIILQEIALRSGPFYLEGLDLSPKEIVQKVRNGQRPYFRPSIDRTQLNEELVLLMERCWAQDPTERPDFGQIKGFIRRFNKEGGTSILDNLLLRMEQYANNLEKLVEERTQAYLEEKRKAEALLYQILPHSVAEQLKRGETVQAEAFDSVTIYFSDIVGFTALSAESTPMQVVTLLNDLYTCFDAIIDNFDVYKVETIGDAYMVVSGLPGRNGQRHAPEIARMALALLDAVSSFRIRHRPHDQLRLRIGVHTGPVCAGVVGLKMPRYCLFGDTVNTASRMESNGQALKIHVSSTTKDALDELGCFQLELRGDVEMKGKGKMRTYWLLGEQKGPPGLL
Assay: cell-based or functional assay

**Q.** GLSKGCFG[NMeL]KLDRIGSMSGLGC (ends and bridges not checked) [CNP22, N-methyl-L9] was tested. Which “cGMP response rel. to 1 uM CNP22; 10 nM peptide, NIH3T3 cells” value did it give?
**A.** 2 rel. to 1 uM CNP22 (100)

**Q.** What about the “cGMP response rel. to 1 uM CNP22; 1 uM peptide, NIH3T3 cells” value of the same binder?
**A.** 8 rel. to 1 uM CNP22 (100)

**Q.** With GLSKGCFGLKLDRIGSMSGLGC [CNP22 (wild-type human CNP-22)] as the binder, how does the “cGMP response rel. to 1 uM CNP22; 10 nM peptide, NIH3T3 cells” value read?
**A.** 46 rel. to 1 uM CNP22 (100)

**Q.** And the “cGMP response rel. to 1 uM CNP22; 1 uM peptide, NIH3T3 cells” value?
**A.** 100 rel. to 1 uM CNP22 (100)

**Q.** What does the source list for GLSKGCFGLK[NMeL]DRIGSMSGLGC (ends and bridges not checked) [CNP22, N-methyl-L11]?
**A.** cGMP response rel. to 1 uM CNP22; 10 nM peptide, NIH3T3 cells: 10 rel. to 1 uM CNP22 (100); cGMP response rel. to 1 uM CNP22; 1 uM peptide, NIH3T3 cells: 51 rel. to 1 uM CNP22 (100)

**Q.** How did the “cGMP response rel. to 1 uM CNP22; 10 nM peptide, NIH3T3 cells” value turn out when GLSKGCXGLKLDRIGSMSGLGC (N-methyl-Phe at 7) [CNP22, N-methyl-F7 (methylated amide)] was run?
**A.** 2 rel. to 1 uM CNP22 (100)

**Q.** What about the “cGMP response rel. to 1 uM CNP22; 1 uM peptide, NIH3T3 cells” value of the same binder?
**A.** 38 rel. to 1 uM CNP22 (100)

**Q.** For GLSKGCFGLKLDRIGSMSG[NMeL]GC (ends and bridges not checked) [CNP22, N-methyl-L20], which “cGMP response rel. to 1 uM CNP22; 10 nM peptide, NIH3T3 cells” value is on record?
**A.** 2 rel. to 1 uM CNP22 (100)

**Q.** And the “cGMP response rel. to 1 uM CNP22; 1 uM peptide, NIH3T3 cells” value?
**A.** 5 rel. to 1 uM CNP22 (100)

**Q.** How did the “cGMP response rel. to 1 uM CNP22; 10 nM peptide, NIH3T3 cells” value turn out when GLSKGCFG[NMeL]K[NMeL]DRIGSMSGLGC (ends and bridges not checked) [CNP22, N-methyl-L9, N-methyl-L11] was run?
**A.** 1 rel. to 1 uM CNP22 (100)

**Q.** And the “cGMP response rel. to 1 uM CNP22; 1 uM peptide, NIH3T3 cells” value?
**A.** 11 rel. to 1 uM CNP22 (100)
